Assay results from US20250304662A1 (published 2025).
Residue numbers refer to the chain shown, from its start. Like-named read-outs stand apart in the source and are kept apart here.

Legend:
Test in all cases: BLI
[1] = biological target: T1, FimGNTEH (E. coli, UniProt P08190 24-37)
T1 sequence (P08190 whole entry, looked up): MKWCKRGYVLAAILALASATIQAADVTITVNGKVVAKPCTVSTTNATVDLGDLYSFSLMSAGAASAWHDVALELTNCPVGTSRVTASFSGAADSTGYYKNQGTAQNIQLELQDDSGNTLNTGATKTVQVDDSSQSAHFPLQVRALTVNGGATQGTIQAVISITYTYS

[2] = biological target: T2, FimGnteH (E. coli, UniProt P08190 24-37)
T2 sequence (P08190 whole entry, looked up): T1 sequence (P08190 whole entry, looked up)

[3] = biological target: T3, E. coli FimH lectin domain truncate (UT189) (E. coli (UT189))
T3 chain: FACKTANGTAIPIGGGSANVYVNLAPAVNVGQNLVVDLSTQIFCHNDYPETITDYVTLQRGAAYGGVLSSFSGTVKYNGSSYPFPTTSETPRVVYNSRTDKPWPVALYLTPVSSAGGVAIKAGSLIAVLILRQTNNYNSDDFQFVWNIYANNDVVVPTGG

[4] = biological target: T3, E. coli FimH lectin domain truncate …
[5] = biological target: T3, E. coli FimH lectin domain truncate …
[6] = biological target: T3, E. coli FimH lectin domain truncate …
[7] = biological target: T3, E. coli FimH lectin domain truncate …
[8] = biological target: Kp1 1C01
[9] = biological target: Kp1 2G02
[10] = biological target: Kp1 1A02
[11] = biological target: Ec1 H9
[12] = biological target: Kp1 2E02
[13] = biological target: Kp1 1B03
[14] = biological target: Kp1 2H07
[15] = biological target: Kp1 2E08
[16] = biological target: Kp1 2D07
[17] = biological target: Ec1 C12

B1: Kp2 2C07 (Fab, V domains shown)
VH: EVKLVESGEGLVKPGGSLKLSCAASGFTFSSYAMSWVRQTPEKRLDWVAYISSGGDHIYYADTVKGRFTISRDNARNTLYLQMSSLKSEDTAMYYCTRDTGYYVSRYFDVWGTGTTVTVSS
VL: DIVMTQSQKFMSTSVGDRVSVTCKASQNVVTNVAWYQQKSGQSPKVVIYSASFRSSGVPDRFTGSGSGTDFTLTISNVQSEDLAEYFCHQYNSHPLTFGGGTKLEIKR
- Kd [1]: 9.9 nM
- Kd [2]: 9.9 nM

B2: Kp2 2C07 Fab (Fab, V domains shown)
VH: B1 VH
VL: B1 VL
- Kd [3]: 2.8 nM
- Kd [4]: 2.8 nM

B3: Ec1 F7 (Fab, V domains shown)
VH: EVQLQQPGPVLVKPGPSVKISCKASGFTFTDYFIHWVKQSHGKSLEWIGLVSPYNGGTYYNQQFKGKATLTVDTSSSTAYMDLNSLTSEDSAVYYCTRLLRGYWYFDVWGTGTTVTVSS
VL: QIVLTQSPALMAASPGEKVTITCSVSSSIGSSNLHWYQQKSETSPKPWIYGTSNLASGVPVRFSGSGSGTSYSLTISSMEAEDAATYYCQQWSTYPYTFGGGTKLEIKR
- Kd [1]: 0.7 nM
- Kd [2]: 0.7 nM

B4: Kp1 2H04 Fab (Fab, V domains shown)
VH: EVQLQQSGAELVKPGASVKLSCKASGYTFTSYWMHWVKQRPGQGLEWIGLIHPNSSSTYYNEKFKTRATLTVDKSSSTAYMQLSSLTSEDSAVYYCARLGYGNSYWYFDVWGTGTTVTVSS
VL: B3 VL with G30S, V61I, M79L, S93R, T94S, Y97W
- koff [5]: 2.1e-05 s⁻¹
- koff [6]: 2.1e-05 s⁻¹

B5: Ec1 F7 Fab (Fab, V domains shown)
VH: B3 VH
VL: B3 VL
- koff [5]: 2.2e-05 s⁻¹
- koff [7]: 2.2e-05 s⁻¹

B6: FimLD (other)
chain: T3 chain
- Kd [8]: 3.4 nM
- koff [9]: 1.3e-05 s⁻¹
- Kd [10]: 0.7 nM
- Kd [11]: 0.2 nM
- Kd [12]: 0.4 nM
- Kd [13]: 4.9 nM
- Kd [14]: 1 nM
- Kd [15]: 1 nM
- Kd [16]: 1.5 nM
- Kd [17]: 2.7 nM
